Assay results as given in patent US20240270846A1 (published 2024).

What was measured:
[1] = target: T1, biotin-labeled human CD137 fused to human IgG1 Fc fragment (human, biotin-labeled); assay: bead ELISA, IgG on biotin-human CD137-Fc; competitor: free CD3 epsilon 62.5 pmol
T1 construct: also called human CD137-Fc; biotin-human CD137-Fc

[2] = target: T1, biotin-labeled human CD137 fused to …; assay: bead ELISA, IgG on biotin-human CD137-Fc; control competitor: free human IgG1 Fc 62.5 pmol
[3] = target: T1, biotin-labeled human CD137 fused to …; assay: bead ELISA, IgG on biotin-human CD137-Fc; decrease with free CD3 epsilon 62.5 pmol against free Fc 62.5 pmol
[4] = target: T2, CD3 epsilon homodimer protein (UniProt P07766 23-126); assay: SPR, Biacore T200, CD3 epsilon homodimer immobilized on CM4, one-arm antibody as analyte, 25 degrees C
T2 construct: also called CD3 (CD3 epsilon)

Binder	ELISA signal, Free CD3e 62.5 pmol [1]	ELISA signal, Free Fc 62.5 pmol [2]	Signal decrease [3]	ratio of amounts bound (Z = Y/X) against the unaltered GLS3000 antibody [4]
dBBDu167/L094 (antibody, V domains shown, Purified IgG; Fab genes of the panning output converted into IgG format; also called dBBDu_167/dBBDu.L094) VH: QVQLVESGGGLVQPGRSLRLSCAASGFTFSNAWMHWVRQAPGKGLEWVAQIKDKGNLYAAYYAPSVKGRFTISRDDSKNSIYLQMNSLKTEDTAVYYCHYVHYASAGGGLPGFGVDAWGQGTTVTVSS VL: DIVMTQSPLSLPVTPGEPASISCYASEELLHINRHIYLHWYQQKPGQAPRLLIYKVYNRFNGVPDRFSGSGSGTDFTLKISRVEAEDVGVYYCAQGSSVPFTFGQGTKLEIK	4370	141000	96.9%	–
dBBDu186/L098 (antibody, V domains shown, Purified IgG; Fab genes of the panning output converted into IgG format) VH: QVQLVESGGGLVQPGRSLRLSCAASGFTFSNAWMHWVRQAPGKGLEWVAQIKDRSNQYATYYAPSVKGRFTISRDDSKNSIYLQMNSLKTEDTAVYYCHYVHYAQASTVLPAFGVDAWGQGTTVTVSS VL: DIVMTQSPLSLPVTPGEPASISCAASEELVHINRYIFLHWYQQKPGQAPRLLIYKVSNRFIGVPDRFSGSGSGTDFTLKISRVEAEDVGVYYCAQGSQVPFTFGQGTKLEIK	15900	115000	86.2%	–
dBBDu186/L100 (antibody, V domains shown, Purified IgG; Fab genes of the panning output converted into IgG format) VH: QVQLVESGGGLVQPGRSLRLSCAASGFTFSNAWMHWVRQAPGKGLEWVAQIKDRSNQYATYYAPSVKGRFTISRDDSKNSIYLQMNSLKTEDTAVYYCHYVHYAQASTVLPAFGVDAWGQGTTVTVSS VL: DIVMTQSPLSLPVTPGEPASISCSASEELVHINRYIFLHWYQQKPGQAPRLLIYKVYNRFMGVPDRFSGSGSGTDFTLKISRVEAEDVGVYYCGQGSSVPFTFGQGTKLEIK	88900	102000	13%	–
L chain one-amino acid altered form of GLS3000, G to Y at Kabat position 91 (one-arm antibody: CE115HA000-pE22Hh / Kn010G3 / altered GLS3000-kappa) (antibody, human IgG1, kappa, L234A L235A, N297A, name in Kabat numbering, One-arm antibody (IgG lacking one Fab); also called GLS3000 G91Y) heavy: QVQLVESGGGVVQPGRSLRLSCAASGFTFSNAWMHWVRQAPGKGLEWVAQIKAKSNNYATYYAESVKGRFTISRDDSKNSLYLQMNSLKTEDTAVYYCRYVHYGAYYGVDAWGQGTTVTVSSASTKGPSVFPLAPSSKSTSGGTAALGCLVKDYFPEPVTVSWNSGALTSGVHTFPAVLQSSGLYSLSSVVTVPSSSLGTQTYICNVNHKPSNTKVDKKVEPKSCDKTHTCPPCPAPEAAGGPSVFLFPPKPKDTLMISRTPEVTCVVVDVSHEDPEVKFNWYVDGVEVHNAKTKPREEQYASTYRVVSVLTVLHQDWLNGKEYKCKVSNKALPAPIEKTISKAKGQPREPQVYTLPPSRCELTKNQVSLSCAVKGFYPSDIAVEWESNGQPENNYKTTPPVLDSDGSFFLVSKLTVDKSRWQQGNVFSCSVMHEALHNHYTQKSLSLSPDYKDDDDK EPKSSDKTHTCPPCPAPELLGGPSVFLFPPKPKDTLMISRTPEVTCVVVDVSHEDPEVKFNWYVDGVEVHNAKTKPREEQYNSTYRVVSVLTVLHQDWLNGKEYKCKVSNKALPAPIEKTISKAKGQPREPQVCTLPPSRDELTKNQVSLWCLVKGFYPSDIAVEWESNGQPENNYKTTPPVLDSDGSFFLYSKLTVDKSRWQQGNVFSCSVMHEALHNRYTQKSLSLSP light: DIVMTQSPLSLPVTPGEPASISCRSSQSLVHSNRNTYLHWYQQKPGQAPRLLIYKVSNRFSGVPDRFSGSGSGTDFTLKISRVEAEDVGVYYCGQYTQVPYTFGQGTKLEIKRTVAAPSVFIFPPSDEQLKSGTASVVCLLNNFYPREAKVQWKVDNALQSGNSQESVTEQDSKDSTYSLSSTLTLSKADYEKHKVYACEVTHQGLSSPVTKSFNRGEC	–	–	–	0.17
L chain one-amino acid altered form of GLS3000, V to Y at Kabat position 94 (one-arm antibody: CE115HA000-pE22Hh / Kn010G3 / altered GLS3000-kappa) (antibody, human IgG1, kappa, L234A L235A, N297A, name in Kabat numbering, One-arm antibody (IgG lacking one Fab); also called GLS3000 V94Y) heavy: QVQLVESGGGVVQPGRSLRLSCAASGFTFSNAWMHWVRQAPGKGLEWVAQIKAKSNNYATYYAESVKGRFTISRDDSKNSLYLQMNSLKTEDTAVYYCRYVHYGAYYGVDAWGQGTTVTVSSASTKGPSVFPLAPSSKSTSGGTAALGCLVKDYFPEPVTVSWNSGALTSGVHTFPAVLQSSGLYSLSSVVTVPSSSLGTQTYICNVNHKPSNTKVDKKVEPKSCDKTHTCPPCPAPEAAGGPSVFLFPPKPKDTLMISRTPEVTCVVVDVSHEDPEVKFNWYVDGVEVHNAKTKPREEQYASTYRVVSVLTVLHQDWLNGKEYKCKVSNKALPAPIEKTISKAKGQPREPQVYTLPPSRCELTKNQVSLSCAVKGFYPSDIAVEWESNGQPENNYKTTPPVLDSDGSFFLVSKLTVDKSRWQQGNVFSCSVMHEALHNHYTQKSLSLSPDYKDDDDK EPKSSDKTHTCPPCPAPELLGGPSVFLFPPKPKDTLMISRTPEVTCVVVDVSHEDPEVKFNWYVDGVEVHNAKTKPREEQYNSTYRVVSVLTVLHQDWLNGKEYKCKVSNKALPAPIEKTISKAKGQPREPQVCTLPPSRDELTKNQVSLWCLVKGFYPSDIAVEWESNGQPENNYKTTPPVLDSDGSFFLYSKLTVDKSRWQQGNVFSCSVMHEALHNRYTQKSLSLSP light: DIVMTQSPLSLPVTPGEPASISCRSSQSLVHSNRNTYLHWYQQKPGQAPRLLIYKVSNRFSGVPDRFSGSGSGTDFTLKISRVEAEDVGVYYCGQGTQYPYTFGQGTKLEIKRTVAAPSVFIFPPSDEQLKSGTASVVCLLNNFYPREAKVQWKVDNALQSGNSQESVTEQDSKDSTYSLSSTLTLSKADYEKHKVYACEVTHQGLSSPVTKSFNRGEC	–	–	–	0.63
L chain one-amino acid altered form of GLS3000, Q to Y at Kabat position 90 (one-arm antibody: CE115HA000-pE22Hh / Kn010G3 / altered GLS3000-kappa) (antibody, human IgG1, kappa, L234A L235A, N297A, name in Kabat numbering, One-arm antibody (IgG lacking one Fab); also called GLS3000 Q90Y) heavy: QVQLVESGGGVVQPGRSLRLSCAASGFTFSNAWMHWVRQAPGKGLEWVAQIKAKSNNYATYYAESVKGRFTISRDDSKNSLYLQMNSLKTEDTAVYYCRYVHYGAYYGVDAWGQGTTVTVSSASTKGPSVFPLAPSSKSTSGGTAALGCLVKDYFPEPVTVSWNSGALTSGVHTFPAVLQSSGLYSLSSVVTVPSSSLGTQTYICNVNHKPSNTKVDKKVEPKSCDKTHTCPPCPAPEAAGGPSVFLFPPKPKDTLMISRTPEVTCVVVDVSHEDPEVKFNWYVDGVEVHNAKTKPREEQYASTYRVVSVLTVLHQDWLNGKEYKCKVSNKALPAPIEKTISKAKGQPREPQVYTLPPSRCELTKNQVSLSCAVKGFYPSDIAVEWESNGQPENNYKTTPPVLDSDGSFFLVSKLTVDKSRWQQGNVFSCSVMHEALHNHYTQKSLSLSPDYKDDDDK EPKSSDKTHTCPPCPAPELLGGPSVFLFPPKPKDTLMISRTPEVTCVVVDVSHEDPEVKFNWYVDGVEVHNAKTKPREEQYNSTYRVVSVLTVLHQDWLNGKEYKCKVSNKALPAPIEKTISKAKGQPREPQVCTLPPSRDELTKNQVSLWCLVKGFYPSDIAVEWESNGQPENNYKTTPPVLDSDGSFFLYSKLTVDKSRWQQGNVFSCSVMHEALHNRYTQKSLSLSP light: DIVMTQSPLSLPVTPGEPASISCRSSQSLVHSNRNTYLHWYQQKPGQAPRLLIYKVSNRFSGVPDRFSGSGSGTDFTLKISRVEAEDVGVYYCGYGTQVPYTFGQGTKLEIKRTVAAPSVFIFPPSDEQLKSGTASVVCLLNNFYPREAKVQWKVDNALQSGNSQESVTEQDSKDSTYSLSSTLTLSKADYEKHKVYACEVTHQGLSSPVTKSFNRGEC	–	–	–	0.17
L chain one-amino acid altered form of GLS3000, Q to Y at Kabat position 93 (one-arm antibody: CE115HA000-pE22Hh / Kn010G3 / altered GLS3000-kappa) (antibody, human IgG1, kappa, L234A L235A, N297A, name in Kabat numbering, One-arm antibody (IgG lacking one Fab); also called GLS3000 Q93Y) heavy: QVQLVESGGGVVQPGRSLRLSCAASGFTFSNAWMHWVRQAPGKGLEWVAQIKAKSNNYATYYAESVKGRFTISRDDSKNSLYLQMNSLKTEDTAVYYCRYVHYGAYYGVDAWGQGTTVTVSSASTKGPSVFPLAPSSKSTSGGTAALGCLVKDYFPEPVTVSWNSGALTSGVHTFPAVLQSSGLYSLSSVVTVPSSSLGTQTYICNVNHKPSNTKVDKKVEPKSCDKTHTCPPCPAPEAAGGPSVFLFPPKPKDTLMISRTPEVTCVVVDVSHEDPEVKFNWYVDGVEVHNAKTKPREEQYASTYRVVSVLTVLHQDWLNGKEYKCKVSNKALPAPIEKTISKAKGQPREPQVYTLPPSRCELTKNQVSLSCAVKGFYPSDIAVEWESNGQPENNYKTTPPVLDSDGSFFLVSKLTVDKSRWQQGNVFSCSVMHEALHNHYTQKSLSLSPDYKDDDDK EPKSSDKTHTCPPCPAPELLGGPSVFLFPPKPKDTLMISRTPEVTCVVVDVSHEDPEVKFNWYVDGVEVHNAKTKPREEQYNSTYRVVSVLTVLHQDWLNGKEYKCKVSNKALPAPIEKTISKAKGQPREPQVCTLPPSRDELTKNQVSLWCLVKGFYPSDIAVEWESNGQPENNYKTTPPVLDSDGSFFLYSKLTVDKSRWQQGNVFSCSVMHEALHNRYTQKSLSLSP light: DIVMTQSPLSLPVTPGEPASISCRSSQSLVHSNRNTYLHWYQQKPGQAPRLLIYKVSNRFSGVPDRFSGSGSGTDFTLKISRVEAEDVGVYYCGQGTYVPYTFGQGTKLEIKRTVAAPSVFIFPPSDEQLKSGTASVVCLLNNFYPREAKVQWKVDNALQSGNSQESVTEQDSKDSTYSLSSTLTLSKADYEKHKVYACEVTHQGLSSPVTKSFNRGEC	–	–	–	0.87
L chain one-amino acid altered form of GLS3000, T to Y at Kabat position 92 (one-arm antibody: CE115HA000-pE22Hh / Kn010G3 / altered GLS3000-kappa) (antibody, human IgG1, kappa, L234A L235A, N297A, name in Kabat numbering, One-arm antibody (IgG lacking one Fab); also called GLS3000 T92Y) heavy: QVQLVESGGGVVQPGRSLRLSCAASGFTFSNAWMHWVRQAPGKGLEWVAQIKAKSNNYATYYAESVKGRFTISRDDSKNSLYLQMNSLKTEDTAVYYCRYVHYGAYYGVDAWGQGTTVTVSSASTKGPSVFPLAPSSKSTSGGTAALGCLVKDYFPEPVTVSWNSGALTSGVHTFPAVLQSSGLYSLSSVVTVPSSSLGTQTYICNVNHKPSNTKVDKKVEPKSCDKTHTCPPCPAPEAAGGPSVFLFPPKPKDTLMISRTPEVTCVVVDVSHEDPEVKFNWYVDGVEVHNAKTKPREEQYASTYRVVSVLTVLHQDWLNGKEYKCKVSNKALPAPIEKTISKAKGQPREPQVYTLPPSRCELTKNQVSLSCAVKGFYPSDIAVEWESNGQPENNYKTTPPVLDSDGSFFLVSKLTVDKSRWQQGNVFSCSVMHEALHNHYTQKSLSLSPDYKDDDDK EPKSSDKTHTCPPCPAPELLGGPSVFLFPPKPKDTLMISRTPEVTCVVVDVSHEDPEVKFNWYVDGVEVHNAKTKPREEQYNSTYRVVSVLTVLHQDWLNGKEYKCKVSNKALPAPIEKTISKAKGQPREPQVCTLPPSRDELTKNQVSLWCLVKGFYPSDIAVEWESNGQPENNYKTTPPVLDSDGSFFLYSKLTVDKSRWQQGNVFSCSVMHEALHNRYTQKSLSLSP light: DIVMTQSPLSLPVTPGEPASISCRSSQSLVHSNRNTYLHWYQQKPGQAPRLLIYKVSNRFSGVPDRFSGSGSGTDFTLKISRVEAEDVGVYYCGQGYQVPYTFGQGTKLEIKRTVAAPSVFIFPPSDEQLKSGTASVVCLLNNFYPREAKVQWKVDNALQSGNSQESVTEQDSKDSTYSLSSTLTLSKADYEKHKVYACEVTHQGLSSPVTKSFNRGEC	–	–	–	0.33
